The values that follow are results of earlier work, collected in paper PMC5257200.

As usually defined, the pKa is the negative logarithm of the acid dissociation constant.

The target of the data set is His19 (UniProt position 19, ILSALHFMAWT). As to conditions: Membrane-bound peptide.

“Influenza B virus M2 protein peptide BM2(3–33) (Influenza B virus (strain not stated for this construct))”: the pKa is on record as approximately 6.5.
